Article PMC4047056

What was measured:
[1] = target: Kv2.1 subunit (unlabeled) (human) (UniProt Q14721)
[2] = target: CFP-tagged N-terminal Kv2.1 fragment (human); test: FRET or BRET; acceptor (YFP) photobleaching FRET in HEK293 cells co-transfected with CFP- and YFP-tagged fragments in a 1:2 cDNA ratio, 48 h after transfection; only cells with YFP/CFP intensity ratio >1
[3] = target: CFP-tagged N-terminal Kv6.4 fragment (human); test: as above
[4] = target: CFP-tagged Kv6.4 C-terminus (human); test: as above
CFP-tagged Kv6.4 C-terminus (human), sequence (Q8TDN1 whole entry): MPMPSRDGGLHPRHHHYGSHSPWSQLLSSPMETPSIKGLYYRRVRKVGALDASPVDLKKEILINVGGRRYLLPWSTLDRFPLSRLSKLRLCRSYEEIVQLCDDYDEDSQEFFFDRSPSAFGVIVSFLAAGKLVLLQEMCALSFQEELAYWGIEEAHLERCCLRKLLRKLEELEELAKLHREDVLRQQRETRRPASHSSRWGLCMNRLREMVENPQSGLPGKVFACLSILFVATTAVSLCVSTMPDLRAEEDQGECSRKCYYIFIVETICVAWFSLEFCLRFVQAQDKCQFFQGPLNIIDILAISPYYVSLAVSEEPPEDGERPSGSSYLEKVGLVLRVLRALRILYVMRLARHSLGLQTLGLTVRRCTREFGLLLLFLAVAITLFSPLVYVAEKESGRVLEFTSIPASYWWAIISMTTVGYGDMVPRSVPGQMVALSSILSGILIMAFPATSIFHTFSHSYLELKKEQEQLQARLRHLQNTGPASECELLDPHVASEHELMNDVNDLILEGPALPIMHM

[5] = target: CFP-tagged C-terminal segment of Kv2.1 (human); test: as above
[6] = target: CFP-tagged N-terminal Kv3.1 fragment (human); test: as above
CFP-tagged N-terminal Kv3.1 fragment (human), sequence (P48547 whole entry, the tested form may be a part): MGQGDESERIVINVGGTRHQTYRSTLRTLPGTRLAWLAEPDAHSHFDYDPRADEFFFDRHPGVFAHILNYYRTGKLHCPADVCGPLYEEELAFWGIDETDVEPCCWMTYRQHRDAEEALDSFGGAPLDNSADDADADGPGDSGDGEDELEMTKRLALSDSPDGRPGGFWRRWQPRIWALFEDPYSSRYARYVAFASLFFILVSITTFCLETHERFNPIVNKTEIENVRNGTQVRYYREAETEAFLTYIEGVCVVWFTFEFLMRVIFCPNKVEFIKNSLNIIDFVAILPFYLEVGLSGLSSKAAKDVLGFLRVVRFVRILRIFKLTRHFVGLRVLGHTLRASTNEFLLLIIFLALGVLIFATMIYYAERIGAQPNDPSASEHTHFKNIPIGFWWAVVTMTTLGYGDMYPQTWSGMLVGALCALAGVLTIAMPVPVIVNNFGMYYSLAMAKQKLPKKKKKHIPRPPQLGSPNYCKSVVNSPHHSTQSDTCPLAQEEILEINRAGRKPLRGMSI

CFP-tagged N-terminal Kv6.4 fragment (human), sequence (Q8TDN1 whole entry, the tested form may be a part): as the sequence (Q8TDN1 whole entry) above
YFP-tagged N-terminal Kv3.1 fragment (domain or fragment), sequence (P48547 whole entry, the tested form may be a part): as the sequence (P48547 whole entry, the tested form may be a part) above

Row | midpoint of inactivation, V1/2, 1st component of the double Boltzmann fit (as of Kv2.1 homotetramers), whole-cell currents in HEK293 cells co-expressing Kv2.1 and Kv6.4(CKv3.1) [1] [mV] | midpoint of inactivation, V1/2, 2nd component of the double Boltzmann fit, whole-cell currents in HEK293 cells co-expressing Kv2.1 and Kv6.4(CKv3.1) [1] [mV] | FRET efficiency [2] [%] | FRET efficiency [3] [%] | FRET efficiency [4] [%] | FRET efficiency [5] [%] | FRET efficiency [6] [%] | Substance
1 | -24.3 | -71.1 |  |  |  |  |  | Kv6.4(CKv3.1) chimera in which the C-terminus of Kv6.4 was replaced by the corresponding domain of Kv3.1
2 |  |  | 21.7 | 21.3 | 8.7 | 8.3 |  | YFP-tagged N-terminal Kv2.1 fragment (domain or fragment)
3 |  |  |  | 9.6 |  |  | 28.8 | YFP-tagged N-terminal Kv3.1 fragment (domain or fragment)
